US20180044415A1 (AbbVie / Abbott, published 2018)

T1: human DLL3 (immobilized human DLL3 or h293-hDLL3 cells) (human, UniProt Q9NYJ7 27-492, limits assumed)
T1 construct: the sentence says 'immobilized human DLL3 or h293-hDLL3 cells'
T1 sequence: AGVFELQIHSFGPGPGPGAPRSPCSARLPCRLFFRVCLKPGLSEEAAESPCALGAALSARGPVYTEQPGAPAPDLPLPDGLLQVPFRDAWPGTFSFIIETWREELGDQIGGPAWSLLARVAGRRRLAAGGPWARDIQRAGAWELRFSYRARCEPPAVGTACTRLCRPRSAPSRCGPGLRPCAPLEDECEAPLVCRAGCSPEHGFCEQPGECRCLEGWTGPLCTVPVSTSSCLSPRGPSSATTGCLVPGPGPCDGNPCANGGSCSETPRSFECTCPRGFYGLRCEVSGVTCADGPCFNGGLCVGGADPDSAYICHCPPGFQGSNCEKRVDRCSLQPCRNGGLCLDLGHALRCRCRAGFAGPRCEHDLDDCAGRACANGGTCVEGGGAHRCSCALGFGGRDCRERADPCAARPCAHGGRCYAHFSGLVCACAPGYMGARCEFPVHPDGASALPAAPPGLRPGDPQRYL

B1: SC16.52 (antibody, V domains shown)
VH: QVQLKESGPGLVAPSQSLSITCAVSGFSLTSFAIHWFRKPPGKGLEWLGVIWTGGTTNYNSALMSRLSISKDNSKSQVFLKMNSLQTDDTAMYYCARDDYDNNYAMDYWGQGTSVTVSS
VL: DIQMIQSPSSMFASLGDRVSLSCRASQGIRGTLDWYQQKPNGTIKLLIYSTSNLNSGVPSRFSGSGSGSDYSLTISSLESEDFADYYCLQRNAYPLTFGAGTKLELK
notes: murine mAb; variable regions only
B2: SC16.38 (antibody, V domains shown)
VH: EVQLQQSGAELVKPGASVKLSCTVSGFNIKDTYIHWVKQRPEQGLEWIGRIDPANGNTKYDPKFQGKATITADTSSNTAYLQLSSLTSEDTAVYYCARPTGYFEYWGQGTTLTVSS
VL: QIVLTQSPAIMSASPGEKVTMTCSASSSINYMHWYQQKPGTSPKRWIYDTSKLASGVPARFSGSGSGTSYSLTISSMEAEDAATYYCHQRSTWTFGGGTKLEIK
notes: as for B1
B3: SC16.42 (antibody, V domains shown)
VH: QIQLVQSGPELKKPGETVKISCKASGYTFTTAGMQWVQKMPGKGFKWIGWINTHSGEPKYADDFKGRFAFSLETSASTAYLQISNLKDEDTATFFCAPLWSDSSFAYWGQGTLVTVSA
VL: DVLMTQSPLSLSVSLGDQASISCRSSQNIVHSDRYTYLEWYLQKPGQSPKLLIYGVSNRFSGVPDRFSGSGSGTDFTLKISRVEAEDMGVYYCFQGTHVPYTFGGGTKLEIK
notes: as for B1
B4: SC16.47 (antibody, V domains shown)
VH: EVQLQQSGPELVKPGASVKISCKASGYSFSRFYMHWVKQSPENSLEWIGEINPSTGGTSYNQKFKGKATLTVDKSSSTAYMQLKSLTSEESAVYYCTRGYGSNCYFDVWGAGTTVTVST
VL: DVVLTQSPLSLPVNIGDQASISCKSTKSLLNSDGFTYLDWYLQRPGQSPQFLIYLVSNRFSGVPDRFSGSGSGTDFTLKISRVEAEDLGVYYCFQSNYLPLTFGAGTKLELR
notes: as for B1
B5: SC16.22 (antibody, V domains shown)
VH: QVQLQQPGAELVKPGASVKLSCKASGYTFTTYWMHWVKQRPGQGLEWIGEIDPSDSYTYYNQKFKGKATLTVDKSSSTAYMQLSSLTSEDSAVYYCARGDYGNPYAMDYWGQGSSVTVSS
VL: DIQMTQTTSSLSASLGDRVTISCRASQDIKNYLNWYQQKPDGTVKPLIYYTSRVHSGVPSRFSGSGSGTDYSLTISNLEQEDIATYFCQQGYTLPFTFGSGTKLEIK
notes: as for B1
B6: SC16.35 (antibody, V domains shown)
VH: DVQLQESGPGLVKPSQSLSLTCTVTGYSITSDYAWNWIRQFPGNKLEWMGYISYSGSTSYNPSLKSRISITRDTSKNQFFLQLNSVTTEDTATYYCARFYYGSSYAMDYWGQGTSVTVSS
VL: DIQMTQTTSSLSASLGDRVTISCRASQDISNYLNWYQQKPDGTVKLLIYYTSRLHSGVPSRFSGSGSGTDYSLTISNLEQEDIATYFCQQGNTLPYTFGGGTKLEIK
notes: as for B1
B7: SC16.63 (antibody, V domains shown)
VH: QVQLQQSGTELLRPGASVKISCKATGYTFSSYWMEWVKQRPGHGLEWIGEILPGSGTTQYNEKFKGKATFTADTSSNTAYMHLSSLTSEDSAVYYCARGTNSLWGQGTLVTVSA
VL: QIVLTQSPAIMSASPGEKVTMTCSASSSVSYMYWYQQKSGTSPKRWIYDTSKLASGVPARFSGSGSGTSYSLTISSMEAEDAATYYCQQWSSNPYTFGGGTKLEIK
notes: as for B1
B8: SC16.57 (antibody, V domains shown)
VH: EVKLVESGGDLVKPGGSLKLSCAASGFAFSSYDMSWVRQTPEKRLEWVATISSGGSYTYYPDSVKGRFTISRDNVRDTLYLQMSSLRSEDTALYYCARQAIGTYFDYWGQGTTLTVSS
VL: DIVMTQSHKFMSISVGDRVSITCKASQDVSIFVAWYQQKPGQSPKLLIYSASYRYTGVPDRFTGSGSGTDFIFTISSVQAEDLAVYYCQQHYGTPFTFGSGTKLKIR
notes: as for B1
B9: SC16.30 (antibody, V domains shown)
VH: QVTLKESGPGILQPSQTLSLTCSFSGFSLSTSGMGVGWIRQPSGKGLEWLAHIWWDDVKRYKPALKSRLTVSKDTSSNQVFLKIATVDAADTGTYYCARIVDGHPPFAYWGQGTLVTVSA
VL: QIVLTQSPTIMSASLGERVTMTCTASSSVTSSYLHWYQQKPGSSPKLWIYSTSNLASGVPARFSGSGSGTSYSLTISSMEAEDAATYYCHQFHRSPFTFGSGTKLEIK
notes: as for B1
B10: SC16.67 (antibody, V domains shown)
VH: EVQLVETGGGLVQPKGSLKLSCAVSAFTFTTYAMNWVRQAPGKGLEWVARIRNKSNNYATYYADSVKDRFTISRDDSQSMLYLQMNNLKIEDTAMYYCVFYYDYVYWGQGTLVTVSA
VL: QAVVTQESALTTSPGETVTLTCRSSTGAVTTSNYANWIQEKPDHLFTGLIGGTNNRAPGVPARFSGSLIGDKAALTITGAQTEDEAIYFCGLWYSNHLVFGGGTKLTVL
notes: as for B1
B11: SC16.20 (antibody, V domains shown)
VH: QVQLQQSGTELVRPGTSVRVSCKASGYAFGNHLIEWVKQRPGQGLEWIGVINPGTGGTHYNEKFKDKARLTADKSSNTAYMHLNSLTSDDSAVYFCARSPYDYHEGAMDYWGQGTSVTVSS
VL: EIQMTQSPSSMSASLGDRITITCQATQDIVKNLNWYQQKPGKPPSFLIYYATELAEGVPSRFSGSGSGSDYSLTIRNLESEDFADHYCLQFYEFPFTFGAGTKLELK
notes: as for B1
B12: SC16.45 (antibody, V domains shown)
VH: QVQLQQSGADLVRPGTSVKVSCKASGYSFTNYLIEWVKQRPGQGLEWIGVINPGSGGTHYNEKFKDKAVLTADKSSTTAHMQLSSLTSDDSAVYFCARSPYDYNDGAMDYWGQGTSVTVSS
VL: EIQMTQSPSSMSASLGDRITITCQATQDIVKNLNWYQQKPGKPPSFLIYYATELAEGVPARFSGSGSGSDYSLTISNLESEDFADYHCLQFYEFPFTFGAGTKLELK
notes: as for B1
B13: SC16.21 (antibody, V domains shown)
VH: QVQLQQSGPELVKPGASVKISCKASGYAFSSSWMNWVKQRPGKGLEWIGRIYPGDGDTNYNGKFKGKATLTADKSSSTAYMQLSSLTSEDSAVYFCAMGIYNYDGSRYYSMDYWGQGTSVTVSS
VL: DIVMTQSPSSLAMSVGQKVTMSCKSSQSLLNSSNQKNYLAWYQQEPGQSPKLLVSFASTRESGVPDRFTGSGSGTDFTLTISGVQAEDLAVYYCQQHYSIPLTFGAGTKLELK
notes: as for B1
B14: SC16.61 (antibody, V domains shown)
VH: EVLLQRSGPDLVKPGASVTIPCKASGYTFTDYNMDWVKQSHGKSLEWIGNINTYNGGTIYNQKFKGKATLTVDKPSSTAYMELRSLTSEDTAVYYCARRLRYGGHYFDYWGQGTALTVSS
VL: DIVMTQSTSSLAMSVGQKVTMSCKSSQSLLNSSNQKNYLAWYQQEPGQSPKLLVSFASTRESGVPDRFTGSGSGTDFTLTISGVQAEDLAVYYCQQHYSIPLTFGAGTKLELK
notes: as for B1
B15: SC16.49 (antibody, V domains shown)
VH: QVQLQQSGPELVKPGTLVKISCKASGYTFTSYDINWVKQRPGQGLEWIGWIYPGDGNTKYSEKFKGKATLTADKSSSTAYMQLTSLTSENSAVYFCARDYDYPFAYWGQGTLVTVSA
VL: DIKMTQSPSSMYASLGERVTITCKASQDINSYLSWFQQKPGKSPKTLIYRANRLVDGVPSRFSGSGSGQDYSLTITSLEYEDMGIYYCLQYDEFPLTFGAGTKLELK
notes: as for B1
B16: SC16.62 (antibody, V domains shown)
VH: EVMLVESGGDLVKPGGSLKLSCAASGFTFSSYAMSWVRQTPEKRLEWVAYISGGGDHIYYPDSVRGRFTISRDNAKDTLYLQMSSLRSEDTALYDCARVRDWYFDVWGAGTTVTVSS
VL: DIKMTQSPSSMYASLGERVTITCKASQDINSFLSWFQRKPGKSPKTLIYRANRLVDGVPSRFTGSGSGQEFSLTISSLEYEDLGIYYCLQYDEFPYTFGGGTKLEIK
notes: as for B1
B17: SC16.55 (antibody, V domains shown)
VH: EVQLVESGGGLVQPKGSLKLSCAVSAFTFTTYAMNWVRQAPGKGLEWVARIRNKSNNYATYYADSVKDRFTISRDDSQSMLYLQMNNLKIEDTAMYYCVFYYDYVYWGQGTLVTVSA
VL: DIKMTQSPSSMYASLGERVTITCKASQDINSYLNWFQQKPGKSPKTLIYRANRLVDGVPSRFSGSGSGQDYSLTISSLEYEDMGIYYCLQYDEFPYTFGGGTKLEIK
notes: as for B1
B18: SC16.65 (antibody, V domains shown)
VH: QVTLKESGPGILQPSQTLSLTCSFSGFSLSTSGMGVGWIRQPSGKGLEWLALIWWDDVKRYNPALKSRLTISKDASSSQVFLKIASVDTADTATYYCARIASYDYDVVYAMDYWGQGTSVSVSS
VL: QIVLTQSPALMSASPGEKVTMTCSVTSSVSYMYWYQQKPRSSPKPWIYLTSNLASGVPARFSGSGSGTSYSLTISSVEAEDAATYYCQQWRNNPFTFGSGTKVEIK
notes: as for B1
B19: SC16.29 (antibody, V domains shown)
VH: QVQLQQSGAELARPGASVKLSCKASGYTFTDQYINWVKQRTGQGLEWIGEIYPGRGNTYYNEKFKGKATLTADKSSSTAYMQLSSLTSEDSAVYFCAREDGGYDDAWFAYWGQGTLVTVSA
VL: QIVLTQSPAIMSASPGEKVTITCSASSSVSYMHWFQQKPGTSPKLWIYTTSNLASGVPARFSGSGSGTSYSLTVSRMEAEDAATYYCQQRSLYPYTFGGGTKVEIK
notes: as for B1
B20: SC16.58 (antibody, V domains shown)
VH: DVQLVESGGGLVQPGGSRKLSCAASGFTFSSFGMHWVRQAPEKGLEWVAYISSGSSNIYYADTVKGRFTISRDNPKNTLFLQMTSLRSEDTAMYYCARGYYGNYDAMDYWGQGTSVTVSS
VL: DIQMTQSPASLSSSVGETVTITCRASENIYSYLAWYQQKQGKSPQLLVYNAKTLAEGVPSRFSGSGSGTQFSLKINSLQPEDFGTYYCQHHYDSPLTFGAGTKLELR
notes: as for B1

These binders were tested against T1, human DLL3 (immobilized human DLL3 or …) (assay: hybridoma screening on immobilized human DLL3 or on h293-hDLL3 cells).

Binding result, binds:
B1
B2
B3
B4
B5
B6
B7
B8
B9
B10
B11
B12
B13
B14
B15
B16
B17
B18
B19
B20
